Assay results reported in patent US20220041658A1 (PROTAGONIST THERAPEUTICS, published 2022).
Positions of bridges follow the written chain, without caps; N, C: chain ends. Non-standard residues stand in square brackets, D forms with d. Trp(7-Me) = Cc1cccc2c(C[C@H](N)C(=O)O)c[nH]c12; 2Nal = N[C@@H](Cc1ccc2ccccc2c1)C(=O)O; d2Nal = N[C@H](Cc1ccc2ccccc2c1)C(=O)O; AEF = NCCOc1ccc(C[C@H](N)C(=O)O)cc1; αMeF = C[C@](N)(Cc1ccccc1)C(=O)O; Cit = NC(=O)NCCC[C@H](N)C(=O)O; Pen = CC(C)(S)[C@H](N)C(=O)O; αMeK = C[C@](N)(CCCCN)C(=O)O; Dab = NCC[C@H](N)C(=O)O; Abu = CC[C@H](N)C(=O)O; Aib = CC(C)(N)C(=O)O; βAla = NCCC(=O)O; Sar = CNCC(=O)O

T1: interleukin-23 receptor (IL-23R) (human, UniProt Q5VWK5 24-629)
T1 sequence (looked up): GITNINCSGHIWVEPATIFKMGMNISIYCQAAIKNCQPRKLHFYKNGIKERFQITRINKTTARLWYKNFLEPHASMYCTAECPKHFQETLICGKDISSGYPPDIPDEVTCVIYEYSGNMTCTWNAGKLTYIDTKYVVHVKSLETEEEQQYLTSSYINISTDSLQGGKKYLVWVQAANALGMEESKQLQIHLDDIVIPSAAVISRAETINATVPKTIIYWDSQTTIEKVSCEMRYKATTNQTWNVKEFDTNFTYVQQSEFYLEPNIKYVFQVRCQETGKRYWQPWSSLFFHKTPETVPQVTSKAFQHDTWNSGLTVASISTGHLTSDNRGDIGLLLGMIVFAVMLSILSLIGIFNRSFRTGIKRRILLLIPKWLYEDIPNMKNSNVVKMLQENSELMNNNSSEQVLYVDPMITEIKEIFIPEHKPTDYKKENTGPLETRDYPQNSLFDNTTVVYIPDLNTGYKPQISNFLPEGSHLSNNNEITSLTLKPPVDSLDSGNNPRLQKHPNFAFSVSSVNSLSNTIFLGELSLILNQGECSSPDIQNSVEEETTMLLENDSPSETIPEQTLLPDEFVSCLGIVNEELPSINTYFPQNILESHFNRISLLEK


Biological target: T1, interleukin-23 receptor (IL-23R)
Assay: cell-based or functional assay

Row | Binder | pStat3 HTRF IC50
1 | Ac-[Pen]NT[Trp(7-Me)][Cit][Pen][AEF][2Nal][αMeK]K(Ac)N[Aib]G-NH2 (disulfide 1-6 (inferred)) [Peptide of SEQ ID NO: 341] | 0.934 nM
2 | XNTXKXXXXKNK (Ac-[Pen]-N-T-[W(2-Me)]-[Lys(Ac)]-[Pen]-Phe[4-(2-aminoethoxy)]-[2-Nal]-[a-MeLys]-[Lys(Ac)]-N-[(D)Lys]-NH2; Pen-Pen disulfide) [Peptide of SEQ ID NO: 351] | 11.3 nM
3 | Ac-[Pen]RT[Trp(7-Me)]K(Ac)[Pen][AEF][2Nal][αMeK]K(Ac)N[dL]-NH2 (disulfide 1-6 (inferred)) [Peptide of SEQ ID NO: 336] | 1.49 nM
4 | XNTXQXXXXKPX (Ac-[Pen]-NT-[W(7-Me)]-Q-[Pen]-Phe[4-(2-aminoethoxy)]-[2-Nal]-[a-MeLeu]-[Lys(Ac)]-P-[bA]-NH2; Pen-Pen disulfide) [Peptide of SEQ ID NO: 211] | 178 nM
5 | XNTXQXXXXKNX (Ac-[Pen]-NT-[W(4-OMe)]-Q-[Pen]-Phe[4-(2-aminoethoxy)]-[2-Nal]-[a-MeLys]-[Lys(Ac)]-N-[bA]-NH2; Pen-Pen disulfide) [Peptide of SEQ ID NO: 229] | 23.1 nM
6 | XQTXQXXXXKNX (Ac-[Pen]-Q-T-[W(7-Me)]-Q-[Pen]-Phe[4-(2-aminoethoxy)]-[2-Nal]-[a-MeLys]-[Lys(Ac)]-N-[bA]-NH2; Pen-Pen disulfide) [Peptide of SEQ ID NO: 237] | 3.39 nM
7 | Ac-[dR][Abu]QT[Trp(7-Me)]K(Ac)C[AEF][2Nal][αMeK]K(Ac)N-NH2 (thioether 2-7 (inferred)) [Peptide of SEQ ID NO: 326] | 18.4 nM
8 | Ac-[Pen]NT[Trp(7-Me)][Cit][Pen][AEF][2Nal][αMeK]K(Ac)N[Aib]A-NH2 (disulfide 1-6 (inferred)) [Peptide of SEQ ID NO: 342] | 0.664 nM
9 | Ac-[Pen]NT[Trp(7-Me)][Cit][Pen][AEF][2Nal][αMeK]K(Ac)N[Aib][d2Nal]-NH2 (disulfide 1-6 (inferred)) [Peptide of SEQ ID NO: 348] | 5.02 nM
10 | Ac-[Pen]GT[Trp(7-Me)]K(Ac)[Pen][AEF][2Nal][αMeK]K(Ac)N[dL]-NH2 (disulfide 1-6 (inferred)) [Peptide of SEQ ID NO: 329] | 0.77 nM
11 | XNTXQXXXXGPX (Ac-[Pen]-NT-[W(7-Me)]-Q-[Pen]-Phe[4-(2-aminoethoxy)]-[2-Nal]-[a-MeLeu]-G-P-[bA]-NH2; Pen-Pen disulfide) [Peptide of SEQ ID NO: 219] | 93.7 nM
12 | XNTXKXXXXKNL (Ac-[Pen]-[(D)Asn]-T-[W(7-Me)]-[Lys(Ac)]-[Pen]-Phe[4-(2-aminoethoxy)]-[2-Nal]-[a-MeLys]-[Lys(Ac)]-N-[(D)Leu]-NH2; Pen-Pen disulfide) [Peptide of SEQ ID NO: 338] | 41.8 nM
13 | Ac-[Pen]NT[Trp(7-Me)][Cit][Pen][AEF][2Nal][αMeK]K(Ac)N[Sar]-NH2 (disulfide 1-6 (inferred)) [Peptide of SEQ ID NO: 339] | 6.3 nM
14 | Ac-[Pen][Aib]T[Trp(7-Me)]Q[Pen][AEF][2Nal][αMeK]K(Ac)N[βAla]-NH2 (disulfide 1-6; SMILES CC(=O)NCCCC[C@H](NC(=O)[C@](C)(CCCCN)NC(=O)[C@H](Cc1ccc2ccccc2c1)NC(=O)[C@H](Cc1ccc(OCCN)cc1)NC(=O)[C@H]1NC(=O)[C@H](CCC(N)=O)NC(=O)[C@H](Cc2c[nH]c3c(C)cccc23)NC(=O)[C@H]([C@@H](C)O)NC(=O)C(C)(C)NC(=O)[C@@H](NC(C)=O)C(C)(C)SSC1(C)C)C(=O)N[C@@H](CC(N)=O)C(=O)NCCC(N)=O) [Peptide of SEQ ID NO: 240] | 17.7 nM
15 | XNTXQXXXXKSX (Ac-[Pen]-NT-[W(7-Me)]-Q-[Pen]-Phe[4-(2-aminoethoxy)]-[2-Nal]-[a-MeLeu]-[Lys(Ac)]-[(D)Ser]-[bA]-NH2; Pen-Pen disulfide) [Peptide of SEQ ID NO: 222] | 5.02 nM
16 | XNTXXXXXXKNL (Ac-[Pen]-N-T-[W(7-Me)]-[Lys(trifluoropropionic)]-[Pen]-Phe[4-(2-aminoethoxy)]-[2-Nal]-[a-MeLys]-[Lys(Ac)]-N-[(D)Leu]-NH2; Pen-Pen disulfide) [Peptide of SEQ ID NO: 319] | 0.714 nM
17 | XNTXKXXXXKNR (Ac-[Pen]-NT-[W(7-Me)]-[Lys(Ac)]-[Pen]-Phe[4-(2-aminoethoxy)]-[2-Nal]-[a-MeLys]-[Lys(Ac)]-N-R-NH2; Pen-Pen disulfide) [Peptide of SEQ ID NO: 243] | 1.87 nM
18 | Ac-[Pen]NT[Trp(7-Me)][Cit][Pen][AEF][2Nal][αMeK]K(Ac)N[Aib][dY]-NH2 (disulfide 1-6 (inferred)) [Peptide of SEQ ID NO: 347] | 0.637 nM
19 | Ac-[Pen]PT[Trp(7-Me)]K(Ac)[Pen][AEF][2Nal][αMeK]K(Ac)N[dL]-NH2 (disulfide 1-6 (inferred)) [Peptide of SEQ ID NO: 333] | 9.3 nM
20 | Ac-[Pen]NT[Trp(7-Me)][Aib][Pen][AEF][2Nal][αMeK]K(Ac)N[βAla]-NH2 (disulfide 1-6; SMILES CC(=O)NCCCC[C@H](NC(=O)[C@](C)(CCCCN)NC(=O)[C@H](Cc1ccc2ccccc2c1)NC(=O)[C@H](Cc1ccc(OCCN)cc1)NC(=O)[C@H]1NC(=O)C(C)(C)NC(=O)[C@H](Cc2c[nH]c3c(C)cccc23)NC(=O)[C@H]([C@@H](C)O)NC(=O)[C@H](CC(N)=O)NC(=O)[C@@H](NC(C)=O)C(C)(C)SSC1(C)C)C(=O)N[C@@H](CC(N)=O)C(=O)NCCC(N)=O) [Peptide of SEQ ID NO: 241] | 12.5 nM

Row | Binder | pStat3 HTRF IC50
21 | Ac-[Pen]NT[Trp(7-Me)][Cit][Pen][AEF][2Nal][αMeK]K(Ac)N[Aib][dR]-NH2 (disulfide 1-6 (inferred)) [Peptide of SEQ ID NO: 345] | 0.639 nM
22 | Ac-[Pen]K(Ac)T[Trp(7-Me)]K(Ac)[Pen][AEF][2Nal][αMeK]K(Ac)N[dL]-NH2 (disulfide 1-6 (inferred)) [Peptide of SEQ ID NO: 330] | 1.38 nM
23 | Ac-[Pen]NT[Trp(7-Me)][Cit][Pen][AEF][2Nal][αMeK]K(Ac)N[Aib][dK]-NH2 (disulfide 1-6 (inferred)) [Peptide of SEQ ID NO: 344] | 0.724 nM
24 | XQTXQCXXXENX (Ac-Abu-Q-T-[W(7-Me)]-Q-C-Phe[4-(2-aminoethoxy)]-[2-Nal]-[THP]-E-N-[bA]-NH2; Abu-Cys thioether) [Peptide of SEQ ID NO: 204] | 1.75 nM
25 | Ac-[Pen][Dab](Ac)T[Trp(7-Me)]K(Ac)[Pen][AEF][2Nal][αMeK]K(Ac)N[dL]-NH2 (disulfide 1-6 (inferred)) [Peptide of SEQ ID NO: 335] | 0.567 nM
26 | XNTXQXXXXKNX (Ac-[Pen]-NT-[W(6-Cl)]-Q-[Pen]-Phe[4-(2-aminoethoxy)]-[2-Nal]-[a-MeLys]-[Lys(Ac)]-N-[bA]-NH2; Pen-Pen disulfide) [Peptide of SEQ ID NO: 228] | 25.7 nM
27 | XNTXQXXXXGPX (Ac-[Pen]-NT-[W(7-Me)]-Q-[Pen]-Phe[4-(2-aminoethoxy)]-[2-Nal]-[a-MeLeu]-G-[(D)Pro]-[bA]-NH2; Pen-Pen disulfide) [Peptide of SEQ ID NO: 220] | 195 nM
28 | Ac-[Pen]LT[Trp(7-Me)]K(Ac)[Pen][AEF][2Nal][αMeK]K(Ac)N[dL]-NH2 (disulfide 1-6 (inferred)) [Peptide of SEQ ID NO: 332] | 1.06 nM
29 | Ac-[Pen][Cit]T[Trp(7-Me)]K(Ac)[Pen][AEF][2Nal][αMeK]K(Ac)N[dL]-NH2 (disulfide 1-6 (inferred)) [Peptide of SEQ ID NO: 331] | 0.834 nM
30 | Ac-[Pen]AT[Trp(7-Me)]K(Ac)[Pen][AEF][2Nal][αMeK]K(Ac)N[dL]-NH2 (disulfide 1-6 (inferred)) [Peptide of SEQ ID NO: 328] | 0.78 nM
31 | Ac-[dR][Abu]QT[Trp(7-Me)]K(Ac)C[AEF][2Nal][αMeK]K(Ac)N[dK][Sar]-NH2 (thioether 2-7 (inferred)) [Peptide of SEQ ID NO: 323] | 5.33 nM
32 | XNTXKXXXXKNL (Ac-[Pen]-NT-[W(7-Me)]-[Lys(Ac)]-[Pen]-Phe[4-(2-aminoethoxy)]-[2-Nal]-[a-MeLys]-[Lys(Ac)]-N-L-NH2; Pen-Pen disulfide) [Peptide of SEQ ID NO: 244] | 1.45 nM
33 | XNTXQXXXXKNX (Ac-[Pen]-NT-[W(4-Me)]-Q-[Pen]-Phe[4-(2-aminoethoxy)]-[2-Nal]-[a-MeLys]-[Lys(Ac)]-N-[bA]-NH2; Pen-Pen disulfide) [Peptide of SEQ ID NO: 231] | 5.85 nM
34 | XNTXXXXXXKNL (Ac-[Pen]-N-T-[W(7-Me)]-[Lys(bAla)]-[Pen]-Phe[4-(2-aminoethoxy)]-[2-Nal]-[a-MeLys]-[Lys(Ac)]-N-[(D)Leu]-NH2; Pen-Pen disulfide) [Peptide of SEQ ID NO: 321] | 1.04 nM
35 | XNTXXXXXXKNL (not fully specified; Ac-[Pen]-N-T-[W(7-Me)]-[Lys(benzyl)]-[Pen]-Phe[4-(2-aminoethoxy)]-[2-Nal]-[a-MeLys]-[Lys(Ac)]-N-[(D)Leu]-NH2; Pen-Pen disulfide) [Peptide of SEQ ID NO: 318] | 1.9 nM
36 | Ac-[Pen]NT[Trp(7-Me)][Cit][Pen][AEF][2Nal][αMeK]K(Ac)N[Aib][dF]-NH2 (disulfide 1-6 (inferred)) [Peptide of SEQ ID NO: 346] | 0.784 nM
37 | Ac-[Pen]NT[Trp(7-Me)][Cit][Pen][AEF][2Nal][αMeK]K(Ac)N[Aib]R-NH2 (disulfide 1-6 (inferred)) [Peptide of SEQ ID NO: 343] | 1.43 nM
38 | XNTXQXXXXKNX (Ac-[Pen]-NT-[W(2,5,7-tritBu)]-Q-[Pen]-Phe[4-(2-aminoethoxy)]-[2-Nal]-[a-MeLys]-[Lys(Ac)]-N-[bA]-NH2; Pen-Pen disulfide) [Peptide of SEQ ID NO: 233] | > 1000 nM
39 | XNTXXXXXXKNL (Ac-[Pen]-N-T-[W(7-Me)]-[Lys(Aib)]-[Pen]-Phe[4-(2-aminoethoxy)]-[2-Nal]-[a-MeLys]-[Lys(Ac)]-N-[(D)Leu]-NH2; Pen-Pen disulfide) [Peptide of SEQ ID NO: 322] | 0.648 nM
40 | Ac-[dR][Abu]QT[Trp(7-Me)]K(Ac)C[AEF][2Nal][αMeK]K(Ac)N[αMeF]-NH2 (thioether 2-7 (inferred)) [Peptide of SEQ ID NO: 327] | 12.7 nM
